From the DeepSol protein solubility set

Test: soluble on expression in E. coli; label from the status in PepcDB or PDB records

Sequence | soluble on expression in E. coli
MNQTDTSPIRLRRSWNTSEIEALFDEHAGRIDPRIYTDEDLYQLELERVFARSWLLLGHETQIRKPGDYITTYMGEDPVVVVRQKDASIAVFLNQCRHRGMRICRADAGNAKAFTCSYHGWAYDTAGNLVNVPYEAESFACLNKKEWSPLKARVETYKGLIFANWDENAVDLDTYLGEAKFYMDHMLDRTEAGTEAIPGVQKWVIPCNWKFAAEQFCSDMYHAGTTSHLSGILAGLPEDLEMADLAPPTVGKQYRASWGGHGSGFYVGDPNLMLAIMGPKVTSYWTEGPASEKAAERLGSVERGSKLMVEHMTVFPTCSFLPGINTVRTWHPRGPNEVEVWAFTVVDADAPDDIKEEFRRQTLRTFSAGGVFEQDDGENWVEIQHILRGHKARSRPFNAEMSMDQTVDNDPVYPGRISNNVYSEEAARGLYAHWLRMMTSPDWDALKATR | soluble
MNRFILSAFLLVAIFAISDAAVAQQQVKDGEKVEIDAFKGAKAIKRTVAGGDQIFHLDGDNKGSFVDAKGKKIESTNYEANNGILIIKKFTKADVGTYSEHPAKNTETKHADGSISAVPGLTLDISLQ | soluble
MNRILLYVHFNKYNKISAHVYYQLEQMRSLFSKIVFISNSKVSHEDLKRLKNHCLIDEFLQRKNKGFDFSAWHDGLITMGFDKLEEFDSLTIMNDTCFGPIWEMAPYFENFEEKKAVDFWGITNNRGTKAFKEHVQSYFMTFKNQVIQNKVFQQFWQSIIEYENVQEVIQHYETQLTSILLNEGFSYQTVFDTRKAESSFMPHPDFSYYNPTAILKHHVPFIKVKAIDANQHIAPYLLNLIRETTNYPIDLIVSHMSQISLPDAKYLLSQKYLNCQRLAKQTCQKVAVHLHVFYVDLLDEFLTAFEDWNFHYDLFITTDSDIKRKEIKEILQRKGKTADIRVTGNRGRDIYPMLLLKDKLSQYDYIGHFHTKKSKEADFWAGESWRKELIDMLVKPADSILSAFETDDIGIIIADIPSFFRFNKIVNAWNEHLIAQEMMSLWRKMDVKKQIDFQAMDTFVMSYGTFVWFKYDALKSLFDLELTQNDIPSEPLPQNSILHAIERLLVYIAWGNSYDFRIVKNPYELTPFIDNKLLNLREDEGAHTYVNFNQMGGIKGALKYIIVGPAKAMKYIFLRLMEKLKLEHHHHHH | soluble
MNRLPNIAKPPQKSNQRKEKAPPEVPALIADKDRGTYYEKGRFLGKGGFAHCYELTNRATREVVAGKVVPKSMLVKQYQRDKMTQEVQIHRELGHINIVKLFNFFEDNLNVYITLELCARRSLMELHKRRKAVTEPEARYFTHQIVDGVLYLHDLNIIHRDMKLGNLFLNDDLVVKIGDFGLATTVNGDERKKTLCGTPNYIAPEVLNKAGHSFEVDIWAVGCILYILLFGQPPFESKSLEETYSRIRHNNYTIPSIATQPAASLIRKMLDPEPTRRPTAKQVQRDGFFKSGFMPTRLPVSCLTMVPKFGGHETSMMEENVAPRGVDARSQRPLNGRAGLSALPQHIVSNNADRERAQQQAAEATFREPEDAYLSQLFHQVAVLLEQRIPGLEEEEAALDGYQSPECLPVFWISKWVDYSDKYGIGYQLCDNSVGVLFNDNSRIMLDQAGNELTYIEKSNKEHYFSMHSGEMPGLLNKKVTLLKYFRSYMNDHLVKAGEGSEQRAGDDLARLPTLRVWFRTKSAIVLHLSNGTVQINFFNDHVKMMMCPLMQAVTFIDQNKRMLTYKLNNLQRNGCPEKFLHRLKYAKTMIERLMSDANVVSQNPARQPDMPRSMAAARSASAGSRGPNQAASHLPQSASGSNIHPRR | not soluble
MNRVQSGFRVPARVLNSLAHLQDGLNIFMDPDWRQIRHVDDWALAITMESAELIDSYPWKWWKNVKAQTDMHNVRIEIADILHFSLSGEIQKRTQDEKGADDVALKSLKEMGFFCRPPAHAKSTAASGQRTNGGDGDGDDELLELMFFPLTEVASAVATFRNIIQLASIYRFDLITKGLLLAAQDLDFNLVGYYVAKYTLNQIRQLKGYKEGVYVKVREGVEDNELLHECVQSVSVEDVLNEGTYLKAWEKIACSVFDAFGMPEEERRHAYDWLKSAALDGKG | soluble
MNRYRQLAELFKTQIQQNTWRAGEKLPSVRVTSRNHSVSAGTVLQAYQLLEAQGWVAAKPQSGYFVTAELDRLEPSPPATSVYRSNINDELYDYLKNQASPDAMKFGSAFPDPALFPLDALNRNLASSGRKMGPETLLDNLPPGSESLRRLIAQRYIQQGMVLTHDDIVITSGALEALNLSLQAVTQPGDTIVVESPTFYGALQAIERLGLKAIEISVDPRIGHSLQQIEAAFTDHDVRACWLMTNFHNPTGMSLNDEQKQRIVELADKHDVYLIEDDVYSELYFSNKKPSSLRTFDTQDRVLHCGSFSKSLCPGYRLGWVVNKRFNEHLQKLQLISTLSGSAPIQQGIAHYLQNDSYDNHLRKLRKNLEQRQSTFIELIGKYFPKSIHYTQPEGGYFLWVELPESKCGKAIYQKLLEDNITVAFGKLFSVGTDYENYLRLNTSLPCNDELEEAVKTIGELLH | not soluble
MNSDAEMNTEDGGSSPEEFGEADCFSEEEDEEIVLDTSDNDTSYAKEDKKSENEVLDNDLLEAEMNTTIADVQAVLQVDPGVCRILLHKYKWNKESLLERLYEHPDTIAFLIDAQVIPRQQEVIPAGDAECDICCSMDELSGLSCNHRACAECWQAYLTNKIVSDAQSEIECMAPNCKLLIEDEKVLAYIKDPTIIAKYRKMMVASYIEINALLKWCPGVDCGRTVKVSHGEPRLVVCTCGSRFCFSCGQDWHEPVNCRLLKLWMKKCNDDSETSNWINSNTKECPKCMATIEKNGGCNQITCKNTGCKFQFCWMCLGPWTVHANAWYKCNKFDDEASQTARTAQELYRANLTRYLFYYNRYMGHLQSLRLEGKLNKTVKAKMDQMQNLSMSWIDVQFLRKAVDVLSECRNTLMFTYIFAFYLKRDNNSMIFESNQKDLEMETEQLSGLLERDLENEDLLTLKQKVQDTFRYVEHRRKVLLDHCAEGTEQDIWQYNE | not soluble
MNSKCHCVILNDGNFIPVLGFGTALPLECPKSKAKELTKIAIDAGFHHFDSASVYNTEDHVGEAIRSKIADGTVRREDIFYTSKVWCTSLHPELVRASLERSLQKLQFDYVDLYLIHYPMALKPGEENFPVDEHGKLIFDRVDLCATWEAMEKCKDAGLTKSIGVSNFNYRQLEMILNKPGLKYKPVCNQVECHPYLNQMKLLDFCKSKDIVLVAYGVLGTQRDGGWVDQNSPVLLDEPVLGSMAKKYNRTPALIALRYQLQRGIVVLNTSLKEERIKENMQVFEFQLSSEDMKVLDGLNRNMRYIPAAIFKGHPNWPFLDEY | soluble
MNSPNILLDSFKIALVKKDSKQAFSLIERLSLEQIKSLDLDALLSLKEMIAQSIELLEKEKEELQLQMHKAKKIQKFLS | not soluble
MNSRMSKLRRSISRSVFQLNSSLSRQNSLNGLVDLPTMSNTTLVDKFATPSNFRQLRDLIRNNNELLAEVVTAFEEKAALDFHYSKTLKKISIRLHKLTQSVESGIDKGWTNVAEQFDIHATIHSNLGSAITEDIIQPLRSIQSNQQKTIRAADNFVEREIRKLKDKKDETQKMKRSLYVLAKELEKTENSAEREKAQPEKFALRRKKYKDQMIRSEDDYVWQTVDLEKQRRMTENVLRKGVESMESVERQRLAHCQTALGRYKRKIETLGPNLRQMFERHSNNLELAVDSVPEDYIQTIQPSTSAVNHITLIDLHAENFGEVMSSTRRRQNLERVSGVLDSELKRLYNNQTADVMVSNSKQISVLEFIEYLYYKLNDSINIVDGGQNRGFHRLSRFQHKIKDKSGLPMTILTIPLSGDNNSLPPPCLSMEASTAYPSPRGSGEYEEYEKISDDGFYSTTTTSSNGGPIRTTTTFDEPTSSPPTICRVLYDFEPKHADEIEIREGQCVLVEDRIGDDWLIGHVISQHDNSSIDPRSGRFPTTYVSLRQ | not soluble
MNSRQMYEKIKERLVAHPHWTFRFDAKQDAMRVEDRRTKKGVTISLPGVIAKWHEQKDEAVREVVYYVEQTLKTMEEDAALSGNERNIYPVIRSASFPTETKEGVPLLFDDHTAETRIYYALDLGKTYRLIDERMLEKDKWSRERVKEIARFNVRSLPTPVKEARVADNVFYFVNPNDGYDASRILNESFLADMRARVEGTMAVAVPHQDVLVIADVRNDIGYDVLAQMTMSFFAGGRVPITALSFLYENGKLEPIFILGKKRRT | not soluble
MNSSPAGTPSPQPSRANGNINLGPSANPNAQPTDFDFLKVIGKGNYGKVLLAKRKSDGAFYAVKVLQKKSILKKKEQSHIMAERSVLLKNVRHPFLVGLRYSFQTPEKLYFVLDYVNGGELFFHLQRERRFLEPRARFYAAEVASAIGYLHSLNIIYRDLKPENILLDCQGHVVLTDFGLCKEGVEPEDTTSTFCGTPEYLAPEVLRKEPYDRAVDWWCLGAVLYEMLHGLPPFYSQDVSQMYENILHQPLQIPGGRTVAACDLLQSLLHKDQRQRLGSKADFLEIKNHVFFSPINWDDLYHKRLTPPFNPNVTGPADLKHFDPEFTQEAVSKSIGCTPDTVASSSGASSAFLGFSYAPEDDDILDC | soluble
MNTDILIGAIAGDIIGSYYEFVPIKSIDFPLFNGSSSHFTDDTIMTIANADWLLTGDSLLGIMQDYGNRYHSSYGSMFYEWLRADNPQPYNSWGNGSAMRVSPIDWAFNTLEETLEAAKQSAEVTHNHPEGIKGAQATAACIYLARTGKSKQEIKEYVETTFGYNLNRTCDDIRPTYHFNESCQGTIPESIIAFLESTDYESAIRLTISLGGDADTMGAITGGIAEAYYKEIPQYIIDEVLKRLSEEFIDIMQRFYRMFISS | not soluble
MNTFQMRDKLKERLSHLDVDFKFNREEETLRIYRTDNNKGITIKLNAIVAKYEDKKEKIVDEIVYYVDEAIAQMADKTLESISSSQIMPVIRATSFDKKTKQGVPFIYDEHTAETAVYYAVDLGKSYRLIDESMLEDLKLTEQQIREMSLFNVRKLSNSYTTDEVKGNIFYFINSNDGYDASRILNTAFLNEIEAQCQGEMLVAVPHQDVLIIADIRNKTGYDVMAHLTMEFFTKGLVPITSLSFGYKQGHLEPIFILGKNNKQK | not soluble
MNTKLTKIISGLFVATAAFQTASAGNITDIKVSSLPNKQKIVKVSFDKEIVNPTGFVTSSPARIALDFEQTGISMDQQVLEYADPLLSKISAAQNSSRARLVLNLNKPGQYNTEVRGNKVWIFINESDDTVSAPARPAVKAAPAAPAKQQAAAPFTESVVSVSAPFSPAKQQAAASAKQTNIDFRKDGKNAGIIELAALGFAGQPDISQQHDHIIVTLKNHTLPTALQRSLDVADFKTPVQKVTLKRLNNDTQLIITTTGNWELVNKSAAPGYFTFQVLPKKQNLESGGVNNAPKTFTGRKISLDFQDVEIRTILQILAKESGMNIVASDSVSGKMTLSLKDVPWDQALDLVMQARNLDMRQQGNIVNIAPRDELLAKDKAFLQAEKDIADLGALYSQNFQLKYKNVEEFRSILRLDNADTTGNRNTLVSGRGSVLIDPATNTLIVTDTRSVIEKFRKLIDELDVPAQQVMIEARIVEAADGFSRDLGVKFGATGRKKLKNETSAFGWGVNSGFGGGDKWEAQTKINLPVAAAANSISLVRAISSGALNLELSASESLSKTKTLANPRVLTQNRKEAKIESGYEIPFTVTTASGGGNSTNTELKKAVLGLTVTPNITPDGQIIMTVKINKDSPAQCASGNNTILCISTKSLNTQAMVENGGTLIVGGIYEENNGNTLTKVPLLGDIPVIGNLFKTRGKKTDRRELLIFITPRIIDTAGNSLRY | not soluble
MNTLISRQLGLLLHAHECVRRDIKIREAAEKNEPAPHAMCKIQDCVIMKEVLKHMTSCKEGPKCNSVHCASSRTILSHWKKCFNEECPVCKPIIEQRTAPPQDTTPAEPKKPEHDQIWHLEVPKTYRSELIEKIYKGIMSNVKPGTLSEAQMDTWKEYSRSAELQIFDTAQKLEAYYHMAREKVCRYQEGFPRRQKTEEKDESDGSEKEDEADDRLEGTSTDYQGS | not soluble
MNTLMTQIHELQHVAHELLYLGADGSPIYTDSFRQLNTEVLQKSDALFALKGENPEEEARLCLALLMGYNATIYDYGDKESKKQVILDRSLLVLESLPSSLLKCQLLTYCYGEVFEEELAKEAHAIIDYWDNKTLSIDEQETVDMLKMIEENQYPNNYID | not soluble
